Test results taken from the RNAGym collection of RNA variant scans (doi:10.7554/elife.80360).

B1: Hammerhead Ribozyme (parent)
chain: ACCGGAUGUGCUUUCCGGUCUGAUGAGUCCGUGAGGACGAAACAG

Variants of: B1
Test: self-cleavage, relative activity (ratio to wild type); higher = more cleavage; co-transcriptional

Point of comparison: C20G U32A, self-cleavage 0.305. Against it:
- U7G C30U — higher, 1.34
- U28A G39A — higher, 0.422
- G10A U19G — higher, 0.464
- C15A A40U — higher, 0.394
- G17C G33U — higher, 0.623
- G10C G25U — lower, 0.277
- C2G A6G — lower, 0.292
- A6G A34G — higher, 0.6
- U24C A42U — lower, 0.286
- C2G C20G — lower, 0.297
- G25A G39A — higher, 0.335
- G27U A44U — higher, 0.349
- A23U A44C — higher, 0.438
- A23C A40G — higher, 0.351
- G4A C20U — higher, 0.358
- U9A G45A — higher, 0.707
- C15A U24A — higher, 0.875
- G10A C11G — higher, 1.35
- C3U G10A — higher, 1.47
- U24G A26U — higher, 0.718
- C3U G33A — higher, 0.953
- C11G A34C — higher, 0.893
- U12G U28G — higher, 0.685
- G10A C30G — higher, 0.783
- U28C A42C — higher, 0.338
- U19A G35U — higher, 0.373
- C16A A34U — higher, 0.719
- G10U U21C — higher, 0.896
- U13A G35C — higher, 0.799
- U12A C20A — higher, 0.313
- A1G C11A — higher, 2.06
- C2A C11A — higher, 0.958
- U19G U24C — lower, 0.255
- U24C A37G — higher, 0.9
- U9A G10A — higher, 1.38
- A37G G45C — higher, 0.416
- G25A C38G — higher, 0.33
- G5C U21A — higher, 0.307
- A23U C29U — higher, 0.322
- G22C C30U — higher, 0.36
- U14G A42U — lower, 0.268
- G17C A40C — higher, 0.328
- G18U G33A — higher, 0.948
- G10A A40C — higher, 0.676
- U24G — higher, 1.03
- C38A G45C — higher, 0.344
- U21G A41G — lower, 0.29
- C3U C38U — higher, 0.999
- G8A A26U — higher, 0.899
- U14G C30A — higher, 0.924
- U7A U12A — higher, 1.55
- U14A A26U — higher, 0.65
- G8U U9A — higher, 1.11
- A6G G18C — higher, 0.351
- G4A C11A — higher, 0.62
- C38G A41C — lower, 0.298
- G10U G36C — higher, 0.929
- C3G C38A — lower, 0.279
- C2U C30U — higher, 1.04
- G22A G39U — higher, 0.325
- U24C G35A — higher, 0.702
- G8U A37C — higher, 1.09
- G17U G27A — higher, 0.643
- A1U U32G — higher, 0.465
- G27C G45A — higher, 0.432
- U9G U13C — higher, 1.04
- U24A U32C — higher, 0.569
- G4U A37G — the same, 0.305
- A34G A42C — lower, 0.294
- G17C G31U — higher, 0.713
- G22A C43A — higher, 0.411
- A1G G35U — higher, 0.947
- A34U G39U — higher, 0.356
- A26C C30U — higher, 0.753
- A1G G4A — higher, 0.521
- A1G G4U — higher, 0.693
- C11G C20U — higher, 0.695
- C3A G45A — higher, 0.358
- U24C G45C — higher, 0.641
- G5U C16U — higher, 0.894
- G4U G8C — higher, 0.377
- A1U G17U — higher, 0.357
- A6G U21C — higher, 0.54
- C38U A41C — higher, 0.32
- U7C U32A — higher, 1.02
- U12C A42U — higher, 0.364
- A1G G8A — higher, 1.57
- C3A U12A — higher, 0.836
- C20G A40C — higher, 0.322
- G33A A37U — higher, 0.727
- U14C G33U — higher, 1.09
- U13G C15G — higher, 0.715
- A6C C16G — higher, 0.372
- A6U U13G — higher, 0.616
- C20U A37G — higher, 0.565
- G18C U28A — higher, 0.415
- G31C A44U — higher, 0.655
- A1U G45U — higher, 0.585
- C15G C16G — higher, 0.384
- G10C C29G — higher, 0.638
- G27C A42U — higher, 0.313
- G27C A42C — lower, 0.272
- A41G C43G — higher, 0.346
- A26U C38U — higher, 0.783
- U12A U24C — higher, 0.727
- G10C U21G — higher, 0.414
- U7A U21A — higher, 0.359
- U7G A26G — lower, 0.289
- A34C G39A — lower, 0.288
- U9G A37C — higher, 0.805
- C2G U9C — higher, 0.357
- G25A A26U — higher, 0.341
- U32A A42G — lower, 0.238
- U24A A40C — higher, 0.421
- G17U C29U — higher, 0.748
- G31U G36A — higher, 0.482
- A26G G27A — lower, 0.27
- C38U G45U — higher, 0.593
- G10C G27A — higher, 0.887
- G5U G31C — higher, 1.03
- G17C U24G — higher, 0.462
- A23U C43A — higher, 0.377
- G8C C11A — higher, 1.43
- G8C C11G — higher, 1.25
- C16A G31C — higher, 1.04
- G22C C29G — lower, 0.266
- C11A A41G — higher, 0.364
- A6U G18U — higher, 0.344
- U21A A40U — higher, 0.338
- U14C A44C — higher, 0.489
- U21C A40G — higher, 0.371
- U24A G35C — higher, 0.851
- A23U A42U — higher, 0.337
- A6U G45U — higher, 0.468
- G33A A34C — higher, 1
- A34U C43U — lower, 0.304
- G4U U12G — higher, 0.564
- G39A A42G — higher, 0.319
- G8A G18A — higher, 0.664
- G5A C38G — higher, 0.575
- G22C C43G — lower, 0.24
- G22C C43U — higher, 0.391
- A1C G18U — higher, 0.353
- C2G G36A — lower, 0.3
- G4C G35U — higher, 0.426
- G25U C43A — higher, 0.359
- U14A — higher, 0.954
- G8C A40U — lower, 0.286
- G8A G33C — higher, 0.949
- G18C G25A — higher, 0.328
- C3G G35A — lower, 0.292
- U19A A40G — higher, 0.307
- C16A G17U — higher, 0.325
- C11A C15G — higher, 1.15
- U21A A37C — higher, 0.529
- C3G G8U — higher, 0.656
- U14G C38U — higher, 0.796
- G35C — higher, 0.791
- G5C G27A — higher, 0.351
- G33U C38U — higher, 0.995
- C15G A34G — higher, 0.833
- G4U U9C — higher, 0.413
- U32A A41G — higher, 0.358
- C2U U12A — higher, 1.26
- C16A A41C — higher, 0.404
- U14A G36A — higher, 0.485
